Entries after “also recorded” stand apart in the source; their conditions may differ.

The subject of assay [1] is BMP-2-induced heterotopic ossification. Briefly: BMP-2-induced heterotopic ossification (HO) mouse model. The following applies: for Heterotopic ossification (bone volume by μCT): after two weeks. It is filed as in vivo, mice. How it is done:
Male and female C57BL/6 mice are used for the HO model. The HO is triggered by injecting BMP-2 into the muscle (Wosczyna et al. 2012).
All the mice are fed with standard feed and water ad libitum and are kept in groups of five mice per cage. The mice are exposed to a 12-hour light/dark cycle and air cooling to 23° C. (no special pathogen-free room). Enrichment is provided in the form of cardboard houses and bedding material. The mice are randomly divided into the different treatment groups and the assays are subsequently carried out as blind experiments.
The HO is examined by means of treatment using 2.5 μl of a 1 mg/ml recombinant BMP-2 solution (Thermo Fisher Scientific) or 2.5 μl of a 1 mg/ml Tfr2-ECD mixed with 47.5 μl Matrigel (BD Bioscience) at 0° C. For combination treatment, 2.5 of a 1 mg/ml recombinant BMP-2 solution is mixed with 2.5 μl of a 1 mg/ml Tfr2-ECD and 45 μl Matrigel. The Matrigel mixtures are injected into the musculus tibialis anterior of 10-week-old female wild-type mice. The legs are examined after two weeks.
The bone microarchitecture is analyzed using vivaCT40 (Scanco Medical, Switzerland). The entire lower leg bones are measured at a resolution of 10.5 μm using X-rays of 70 kVp, […] and at an integration time of 200 s. Predefined scripts from Scanco are used to analyze the bone (#1).
Heterotopic ossification (HO): The HO model was performed according to Wosczyna et al^32. Briefly, 2.5 μl of 1 mg/ml recombinant BMP-2 (Thermo Fisher) or 2.5 μl of 1 mg/ml Tfr2-ECD were mixed with 47.5 μl matrigel (BD Bioscience) on ice. For the local combination treatment, 2.5 μl BMP-2 were mixed with 2.5 μl Tfr2-ECD and 45 μl matrigel. The matrigel-mixtures were injected into the midbelly of the tibialis anterior muscle of 10-week-old female WT and Tfr2-deficient mice. Some mice were treated daily with palovarotene through oral gavage using a previously published protocol^58. Palovarotene (Hycultec) was dissolved in DMSO and diluted 1:4 with corn oil. Mice received palovarotene at a dose of 100 μg/mouse for the first five days and 50 μg/mouse for the remainder of the experiment (days 6-14). Two weeks after BMP-2 injection, the legs were harvested for analysis. This experiment was performed three times with 3-11 mice per group. To analyze the chondrogenic phase of HO, we performed an experiment as described above that was terminated on day 8. This was performed once with 4-6 mice per group.
For systemic Tfr2-ECD treatment, WT mice were treated every other day with Tfr2-ECD intraperitoneally for two weeks. Mice received 250 μg Tfr2-ECD (10 mg/kg BW) per injection for the first 10 days after BMP-2/matrigel injection into the muscle and 125 μg per injection (5 mg/kg BW) for the remaining time. This experiment was performed once with 8-10 mice per group. Drop-weight HO: This experiment was performed according to Liu et al. with minor modifications^65. Female 10-12-week-old WT mice were anesthetized and placed on a ridge of a plastic container over which the right leg was bent so the femur was lying horizontally. Mice received an injection of 1 μg BMP-2 mixed in 50 μl matrigel. Afterwards, a stainless-steel ball of 16 g (16 mm diameter) was dropped from a distance of 80 cm height onto the quadriceps muscle. Mice either received a single dose of 1 μg Tfr2-ECD, which was co-injected with the BMP-2/matrigel mixture, or palovarotene (Hycultec), which was administered daily by oral gavage. Palovarotene was dissolved in DMSO and diluted 1:4 with corn oil. […]

In a further assay the target is T1, BMP-2 (Homo sapiens, UniProt P12643).
T1 sequence (P12643 283-396): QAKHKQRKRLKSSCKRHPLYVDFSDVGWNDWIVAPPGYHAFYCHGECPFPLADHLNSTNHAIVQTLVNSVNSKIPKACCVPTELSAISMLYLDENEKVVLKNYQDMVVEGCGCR
As to the kind of experiment: BMP-2 competitive ELISA. It is filed as binding. The note with it: 1.5 ng/ml BMP-2 with increasing concentrations of protein. The protocol:
In order to carry out the BMP-2-competitive ELISA, the Duo Set BMP-2 ELISA kit by R&D Systems is used.
The Duo Set BMP-2 ELISA kit from R&D Systems was used. […] After 1 h incubation at RT and extensive washing, the detection antibody was added according to the manufacturer's protocol and the amount of BMP-2 was quantified. This experiment was performed at least three independent times.
On the technique in general: An ELISA detects its analyte on a solid surface through an enzyme-linked reagent.

The mark [2] stands for this setting: WT mice, day 8, systemic treatment, Safranin O staining.

B1: Tfr2-ECD: Recombinant full-length extracellular domain (aa 103-798) of murine Tfr2, His-tagged, expressed in Sf9 insect cells (protein, listed as Mus musculus)
chain: RGSCQACGDSVLVVDEDVNPEDSGRTTLYWSDLQAMFLRFLGEGRMEDTIRLTSLRERVAGSARMATLVQDILDKLSRQKLDHVWTDTHYVGLQFPDPAHANTLHWVDADGSVQEQLPLEDPEVYCPYSATGNATGKLVYAHYGRSEDLQDLKAKGVELAGSLLLVRVGITSFAQKVAVAQDFGAQGVLIYPDPSDFSQDPHKPGLSSHQAVYGHVHLGTGDPYTPGFPSFNQTQFPPVESSGLPSIPAQPISADIADQLLRKLTGPVAPQEWKGHLSGSPYRLGPGPDLRLVVNNHRVSTPISNIFACIEGFAEPDHYVVIGAQRDAWGPGAAKSAVGTAILLELVRTFSSMVSNGFRPRRSLLFISWDGGDFGSVGATEWLEGYLSVLHLKAVVYVSLDNSVLGDGKFHAKTSPLLVSLIENILKQVDSPNHSGQTLYEQVALTHPSWDAEVIQPLPMDSSAYSFTAFAGVPAVEFSFMEDDRVYPFLHTKEDTYENLHKMLRGRLPAVVQAVAQLAGQLLIRLSHDHLLPLDFGRYGDVVLRHIGNLNEFSGDLKERGLTLQWVYSARGDYIRAAEKLRKEIYSSERNDERLMRMYNVRIMRVEFYFLSQYVSPADSPFRHIFLGQGDHTLGALVDHLRMLRADGSGAASSRLTAGLGFQESRFRRQLALLTWTLQGAANALSGDVWNIDNNF
modifications: His tag
notes: Recombinant full-length extracellular domain (aa 103-798) of murine Tfr2, His-tagged, expressed in Sf9 insect cells
In the case of B1, the “Heterotopic ossification (bone volume by μCT)” value in assay [1] (Tfr2-/- mice, co-application of Tfr2-ECD with BMP-2) is given as “significantly inhibited”; in assay [1] (WT mice, local Tfr2-ECD co-injected with BMP-2 into the muscle), “significant reduction in bone formation; also recorded: completely abrogated; also recorded: reduced; also recorded: inhibited”; in assay [1] (WT mice, systemic treatment, i.p. injections every other day), “reduced; also recorded: inhibited”. In assay [1] (setting [2]), the “Number of chondrocytes (chondrogenic phase of HO)” value is recorded as “suppressed”. Besides, the “Production of cartilage (chondrogenic phase of HO)” value in assay [1] (setting [2]) was “suppressed”. In addition, the “BMP-2 binding: signal of the BMP-2 detection antibody” value is recorded as “verified” in the assay with BMP-2 and “signal of the BMP-2 detection antibody reduced” in the assay with BMP-2 (listed as protein according to the invention).

The record behind these values is patent US20240199755A1, “ANTAGONISTS AND AGONISTS OF THE TRANSFERRIN RECEPTOR-2 FOR USE IN THE TREATMENT OF DISEASES OF THE BONE” (Kymab Limited, priority 2018, published 2024).
